In patent US20060246519A1, “MONOMERIC STREPTAVIDIN MUTEINS” (priority 2005, published 2006):

Experiments:
[1] = Degree of monomerization of non-boiled samples in SDS-PAGE / Western blot; type: physicochemical
Description: FIG. 3: Western blot analysis of cell culture supernatants from B. subtilis strains producing streptavidin muteins carrying a single mutation. 15 μl of non-boiled sample of culture supernatant was loaded to each lane. Samples on the left set were collected from B. subtilis strains cultured in super-rich medium without additional supplement of biotin. Samples on the right set were collected from B. subtilis strains cultured in super-rich medium with additional supplementation of biotin (20 μM). The blot was probed with polyclonal antibodies against streptavidin and developed using 4-chloro-1-napthol (Bio-Rad) as the colour development agent. […] M, molecular weight markers; wt, wild type streptavidin.
FIG. 4: Analysis of culture supernatants from B. subtilis strains producing streptavidin muteins carrying different combinations of mutations. All these strains were cultivated in super-rich medium supplemented with biotin (20 μM). The 15 μl of non-boiled samples of culture supernatants were loaded. FIG. 4A. Coomassie blue stained SDS-polyacrylamide gel. Bands corresponding to tetrameric and monomeric streptavidin are marked by an asterisk and an arrowhead, respectively. FIG. 4B. Western blot probed with polyclonal antibodies against streptavidin. M, molecular weight markers; wt, wild type streptavidin; AK, mutein (D61A, W 120K); M1, mutein (T76R); M2, mutein (T76R, V125R); M4, mutein (T76R, V125R, V55T, L109T); C, negative control.
Streptavidin muteins carrying a single amino-acid change at the selected site may be produced in their soluble form by B. subtilis via secretion. Analysis of non-boiled culture supernatants by SDS-PAGE offers a quick screen for the mutation effect (Qureshi, 2001). Weaker subunit interaction would result in a higher percentage of the sample in the monomeric state on the SDS-polyacrylamide gel. Since biotin can strengthen subunit interaction, samples were analyzed in the presence or absence of biotin (Laitinen, 2001; Gonzalez, 1999).
In single mutation muteins, the impact of the mutation on weakening of the subunit interaction followed the order T76R>V125R>[…]≈V55R>V55T (FIG. 3 and Table 4). The T76R mutein (referred to herein as M1) existed 100% in the monomeric state on the SDS-polyacrylamide gel even in the presence of biotin. In contrast, V55T mutation had the lowest impact, with the majority of molecules in the tetrameric state even in the absence of added biotin. Presence of biotin shifts the majority of the three remaining muteins (V125R, V125T and V55R) to the tetrameric state. Changing valine to arginine exerted greater impact than changing it to threonine. This is true for both Val-125 and Val-55.

[2] = Apparent molecular mass by gel filtration (Bio-Prep SE 100/17); type: physicochemical
Description: FIG. 6: Gel filtration profiles of streptavidin muteins. FIG. 6A. […] Bovine gamma-globulin (158 kDa), bovine serum albumin (66 kDa), ovalbumin (44 kDa), myoglobin (17 kDa) and vitamin B-12 (1.35 kDa) were used as molecular mass markers (closed circles) to calibrate the column. The logarithm of molecular mass was plotted versus Kav (Kav=(Ve−Vo)/(Vt−Vo); Ve, elution volume; Vo, void volume; Vt, bed volume). Positions of wild-type streptavidin (wt) and streptavidin muteins are represented by solid squares. FIG. 6B. Elution profile of M4 mutein (loaded at 2 mg/ml) on the gel filtration column.
(§1) Molecular mass of purified streptavidin and its muteins was estimated by both gel filtration and dynamic light scattering studies. Gel filtration was performed on the Bio-Rad biologic workstation equipped with a Bio-Prep SE 100/17 column that had been calibrated with molecular mass protein markers (Bio-Rad). Molecular mass was also estimated from the hydrodynamic radius of the mutein obtained using a DynaPro MS dynamic light scattering instrument (Protein Solutions, USA) that had been calibrated with lysozyme. Protein samples (2-3 mg/ml in PBS) were passed through a 0.02 μm filter (Whatman Anodisc 13) immediately prior to measurement. The size distribution profile was analyzed using the manufacturer's Dynamics V6 software.

[3] = Dynamic light scattering (hydrodynamic radius, estimated molecular mass); type: physicochemical; conditions: for M (kDa) (Dynamic light scattering): calculated from measured RH using a protein calibration curve
Description: as §1

proteinase K = test: Proteinase K digestion of streptavidin and its muteins; type: biochemical
Description: Purified streptavidin and its muteins (30 μM monomer) were treated with proteinase K (Invitrogen, 5 μM) for 15 min at 30° C. in 50 mM Tris-HCl containing 5 mM CaCl2, pH 8.0. The reaction was stopped by precipitation with trichloroacetic acid (Ellison, 1995). Boiled samples of precipitated proteins were resolved by reducing SDS-PAGE. The same analysis was performed with streptavidin samples treated with biotin (1 mM final concentration) prior to proteinase K digestion.

[4] = Cross-linking reactions with sulfo-EGS; type: physicochemical; conditions: 10-fold molar excess sulfo-EGS, 30 min, room temperature
Description: Cross-linking of streptavidin and its muteins was carried out using sulfo-EGS [ethylene glycolbis(sulfosuccinimidyl succinate)] (Pierce) as the cross-linker. A typical reaction mixture (20 μl) contained the purified mutein (0.2 5 mg/ml) and sulfo-EGS (10-fold molar excess over the protein) in PBS. After 30 min at room temperature, the reaction was quenched with Tris-HCl (30 mM, pH 7.5). Aliquots of the cross-linking reaction samples were boiled and examined by SDS-PAGE. Lysozyme (Sigma, 0.25 mg/ml) was included in the study to help establish the optimal reaction conditions.

[5] = test system: Biotin-conjugated bovine serum albumin; test: Kinetic analysis by surface plasmon resonance BIAcoreX biosensor; type: binding; conditions: interaction with biotin
Description: FIG. 8: Kinetic parameters for the interaction between M4 streptavidin mutein and biotin as monitored by BIAcore biosensor. A. On-rate (ka) determination. ka is derived from association analysis. kd is the slope of the plot of In(Ro/Rt) versus (t−to) where Ro is the response at an arbitrary starting time to; Rt is the response at time t.
The kinetic parameters (both on- and off-rates for interaction with biotin) of streptavidin muteins were determined in real time using the surface plasmon resonance based BIAcoreX biosensor. Biotin-conjugated bovine serum albumin immobilized on CM5 sensor chip was used to study the reversibility of biotin binding (Qureshi, 2001).

[6] = independent of the presence or absence of biotin, 5 μM proteinase K, 15 min, 30° C.

Substance	Monomer (percentage of streptavidin in monomeric state) ([1]; No additional biotin)	Monomer (percentage of streptavidin in monomeric state) ([1]; With additional biotin (20 μM))	M (kDa) (Gel filtration) ([2]; no biotin)	RH (nm) (Dynamic light scattering) ([3]; no biotin)	M (kDa) (Dynamic light scattering) ([3]; no biotin)	Oligomeric state after cross-linking with sulfo-EGS (SDS-PAGE) [4]	also measured
AK: prior art streptavidin mutein carrying double mutations D61A, W120K [reference compound]	100%	100%	45.66 kDa	3.20 ± 0.23 nm	50 kDa	cross-linking profile very similar to that of the wild type streptavidin	M (kDa) (Gel filtration) ([2]; +biotin): 50.12 kDa; RH (nm) (Dynamic light scattering) ([3]; +biotin): 3.54 ± 0.38 nm; M (kDa) (Dynamic light scattering) ([3]; +biotin): 63 kDa; Susceptibility to proteinase K digestion (proteinase K; absence of biotin): most of it was digested; Susceptibility to proteinase K digestion (proteinase K; biotin present (1 mM)): much more resistant; ka, on-rate [5]: 1.46 ± 0.05 × 10^4 M^−1s^−1; kd, off-rate [5]: 3.59 ± 0.03 × 10^−3 s^−1
M1: streptavidin mutein carrying the single mutation T76R	100%	100%	–	–	–	–	–
M2: streptavidin double mutant carrying T76R and V125R mutations	100%	100%	19.95 kDa	1.98 ± 0.24 nm	17 kDa	migrated as monomers	M (kDa) (Gel filtration) ([2]; +biotin): 23.44 kDa; RH (nm) (Dynamic light scattering) ([3]; +biotin): 2.09 ± 0.29 nm; M (kDa) (Dynamic light scattering) ([3]; +biotin): 18 kDa; Susceptibility to proteinase K digestion (proteinase K; [6]): completely digested; ka, on-rate [5]: 1.88 ± 0.07 × 10^4 M^−1s^−1; kd, off-rate [5]: 3.22 ± 0.01 × 10^−3 s^−1
V55R: streptavidin mutein carrying the single mutation V55R	20%	10%	–	–	–	–	–
V55T: streptavidin mutein carrying the single mutation V55T	1%	0%	–	–	–	–	–
V125R: streptavidin mutein carrying the single mutation V125R	92%	12%	–	–	–	–	–
V125T: streptavidin mutein carrying the single mutation V125T	25%	0%	–	–	–	–	–
Wt: wild-type streptavidin produced by B. subtilis WB800 [reference compound]	–	–	56.23 kDa	3.69 ± 0.19 nm	69 kDa	most of these subunits were cross-linked to dimers and higher oligomers	M (kDa) (Gel filtration) ([2]; no biotin, listed as wild-type streptavidin): 56 kDa; Susceptibility to proteinase K digestion (proteinase K; [6]): converted to the core form
